The results in this text go back to article PMC10000358, “Development of an inhibiting antibody against equine interleukin 5 to treat insect bite hypersensitivity of horses” (Scientific Reports, 2023).

Several values for one entry are separate records, joined by “and”; a condition that tells them apart may be missing. Equal values may be shown once.

For experiment [1], the target named is T1, equine interleukin 5 with 8 × His-tag (Equus caballus, UniProt O02699).
The target of experiment [2] is T1, equine interleukin 5 with 8 × His-tag. In words: flow cytometry on cells; cellular in vitro inhibition assay: antibody (screening 1000 nM; titration 1000 nM-0.32 nM) pre-incubated with 5 nM eqIL-5 (related to dimer), then added to 5 x 10^5 eqIL-5 receptor expressing Expi293F cells for 45 min on ice, FACS buffer (2% FCS, 5 mM EDTA in PBS); bound eqIL-5 detected by Penta-His antibody and anti mouse Fc-APC; IC50 by Logistic5 fit; single measurements. The conditions noted are these: both partners purified. In general terms: A flow cytometer gives signals particle by particle.

Experiment [3] addresses T2, equine interleukin 5 with 8 × His-tag (equine (horse), UniProt O02699 20-134).
T2 chain: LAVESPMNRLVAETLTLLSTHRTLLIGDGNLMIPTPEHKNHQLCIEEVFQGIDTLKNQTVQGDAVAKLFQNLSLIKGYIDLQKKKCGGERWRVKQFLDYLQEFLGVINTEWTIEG
In words: ELISA. In general terms: ELISA stands for enzyme-linked immunosorbent assay.

Experiment [4] concerns the target T3, BSA (Bos taurus, UniProt P02769).
T3 construct: BSA (serum albumin), negative control coated on the plate
In words: ELISA; titration ELISA: 100 ng eqIL-5/well (or 1% BSA as negative control) immobilised, blocked with 2% MPBST; eqIgG6 antibody titrated from 316 nM, 1 h at RT; detected with anti horse IgG (Fc)-HRP; EC50 by Logistic5 fit; triplicates. Conditions: both partners purified.

In experiment [5] the target is T1, equine interleukin 5 with 8 × His-tag. The description is as above. Conditions: both partners purified.
Experiment [6] deals with T3, BSA. Briefly: ELISA; unspecificity ELISA: antigens immobilised at 10 ug/mL in PBS, blocked with 2% MPBST; 100 nM eqIgG6 antibody, 1 h at RT; detected with anti horse IgG (Fc)-HRP. The conditions noted are these: both partners purified.
Experiment [7] deals with T1, equine interleukin 5 with 8 × His-tag. Briefly: flow cytometry on cells; competitive cellular inhibition assay: no pre-incubation; 1000 nM-0.1 nM antibody first put on 5 x 10^5 receptor expressing cells, then 5 nM eqIL-5 (related to dimer) added for 45 min on ice; detection as before. Conditions: both partners purified.

T3 sequence (P02769 25-607): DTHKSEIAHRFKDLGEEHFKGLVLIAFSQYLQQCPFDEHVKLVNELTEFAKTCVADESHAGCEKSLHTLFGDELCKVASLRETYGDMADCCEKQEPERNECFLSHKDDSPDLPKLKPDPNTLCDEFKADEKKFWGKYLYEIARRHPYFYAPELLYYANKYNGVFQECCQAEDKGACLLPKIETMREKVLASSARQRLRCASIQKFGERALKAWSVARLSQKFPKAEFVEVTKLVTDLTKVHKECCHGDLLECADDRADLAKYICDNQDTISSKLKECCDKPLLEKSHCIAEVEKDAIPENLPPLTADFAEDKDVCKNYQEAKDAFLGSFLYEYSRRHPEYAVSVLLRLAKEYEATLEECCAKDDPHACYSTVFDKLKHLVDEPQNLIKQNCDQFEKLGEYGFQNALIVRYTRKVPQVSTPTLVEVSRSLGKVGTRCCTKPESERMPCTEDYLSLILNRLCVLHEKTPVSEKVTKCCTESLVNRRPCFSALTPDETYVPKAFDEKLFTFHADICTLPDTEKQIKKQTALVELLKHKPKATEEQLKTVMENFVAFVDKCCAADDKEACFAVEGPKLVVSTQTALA

B1: NOL225-2-F10 (antibody, V domains shown)
VH: QVQLQQSGGGVVQPGRSLRLSCAASGFTFSSYGMHWVRQAPGKGLEWVAVIWYDGSNKYYADSVKGRFTISRDNSKNTLYLQINSLRAEDTAVYYCARGLYGRSYFDYWGQGTLVTVSS
VL: SYELTQPPSVSVAPGQTAKIVCEGDNIGSKSVHWYQQRPGQAPVLVVYDDTDRPSGIPDRFSGSNSGNTATLTISRVEVGDEADYYCQVWDSGDGHPRVFGGGTKLTVL
On to B1, for which the binding result in experiment [1] is reported as “binds”.

B2: NOL225-2-C1 (eqIgG6 format) (antibody, V domains shown)
VH: QVQLQQSGGGVVQPGRSLRLSCAASGFTFSSYGMHWVRQAPGKGLEWVAVIWYDGRNKYYADSVKGRFTISRDNSKNTLYLQMNSLRAEDTAVYYCARGLFGRSYFDYWGQGTLVTVSS
VL: SYELTQPPSMSVAPGQTARIACEGDNIGSKSVHWYQQRPGQAPVLVVFDDTDRPSGIPDRFSGSNSGNTATLTISRVEVGDEADYYCQVWDSGDGHPRVFGGGTKLTVL
notes: source: Expi293F suspension cells, purified (HiTrap Fibro PrismA or Protein G HP)
Usually IC50 stands for the point on the concentration scale where inhibition reaches its midpoint. For orientation: EC50 means the concentration that produces a half-maximal response. A high value points to weaker potency. Regarding B2, the IC50 in experiment [2] turned out to be 4 nM. In addition, in experiment [3], it took 0.4 nM to reach a half-maximal effect (EC50). For the same molecule, the binding result in experiment [4] was “no binding (tested: 316 nM)”.

B3: NOL231-2-E2 (eqIgG6 format) (antibody, V domains shown)
VH: QVQLQQSEGGVVQPGRSLRLSCAASGFTFSSYGMHWVRQAPGKGLEWLAVIWYDGSNKYYADSVKGRFTISRDNSKNTLYLQMNSLRAEDTAVYYCARGLFGRSYFDYWGQGTLVTVSS
VL: SYELTQPPSVSVAPGQTAKITCEGDNIGSKSVHWYQQRPGQAPVLVVYDDTDRPSGIPDRFSGSNSGNTATLTISRVEVGDEADYYCQVWDSGDGHPRVFGGGTKLTVL
notes: as for B2
The molecule B3 displayed a concentration for half-maximal inhibition (IC50) in experiment [2] of 3 nM. The molecule further returned a half-maximal effective concentration (EC50) in experiment [3] of 0.5 nM. Besides, the binding result in experiment [4] is “no binding (tested: 316 nM)”.

B4: NOL48-1-D5 (eqIgG6 format) (antibody, V domains shown)
VH: QVQLQQSGGGVVQPGRSLRLSCAASGFTFSSYGMHWVRQAPGKGLEWVAVIWYDGSNKYYADSVKGRFTISRDNSKNTLYLQMNSLRAEDTAVYYCARGLYGRSYFDYWGQGTLVTVSS
VL: SYELTQPPSVSVAPGQTAKIACEGDNIGSKSVHWYQQRPGQAPVLVVYDDTDRPSGIPDRFSGSNSGNTATLTISRVEVGDEADYYCQVWDSGDGHPRVFGGGTKLTVL
notes: human VH of NOL48-1-D5 (selected from HAL9/10); human VL of NOL48-1-D5; Chimeric IgG: human VH and VL, all constant domains equine (IgG6); Selected by panning in solution; also called parental antibody; parAB; source: Expi293F suspension cells, purified (HiTrap Fibro PrismA or Protein G HP)
With B4, in experiment [2], the half-maximal inhibitory concentration (IC50) is 6 nM and 12 nM. In addition, the midpoint of the response in experiment [5], the EC50, lay at 1 nM. In experiment [4], the binding result is “no binding (tested: 316 nM)”.

B5: NOL231-1-A3 (eqIgG6 format) (antibody, V domains shown)
VH: QVQLQQSGGGVVQPGRSLRLSCAASGFTFSSYGMHWVRQAPGKGLEWVAVIWYDGSNKYYADSVKGRFTISRDNSKNTLYLQMNSLRAEDTAVYYCARGLYGRSYFDYWGQGTLVTVSS
VL: SYELTQPPSVSVAPGQTAKIACEGDNIGSKSVHWYQQRPGQAPVLVVYDDTDRPSGIPDRFSGSNSGNTATLTISRVEVGDEADYYCQVWDSGDGNPRVFGGGTKLTVL
notes: as the VH of m3 (NOL48-1-D5); as the VL of m3 (NOL48-1-D5) with H96N in the CDR3 of the VL; source: Expi293F suspension cells, purified (HiTrap Fibro PrismA or Protein G HP)
The molecule B5 displayed an IC50 in experiment [2] of 4 nM. The molecule further displayed a concentration giving a half-maximal response (EC50) in experiment [3] of 0.5 nM. For the same molecule, the binding result in experiment [4] was “no binding (tested: 316 nM)”.

B6: NOL226-2-D1 (antibody, V domains shown)
VH: EVQLVETGGGVVRPGRSLRLSCAASGFTFSSYGMHWVRQAPGKGLEWVAVISYDGSNKYYADSVKGRFTISRDNSKNTLYLQMNSLRAEDTAVYYCVKGFKIQLWFAAFDIWGQGTMVTVSS
VL: QSVLTQPPSVSVAPGQTARITCGGNNIGSKSVHWYQQKPGQAPVLVVYDDSDRPSGIPERFSGSNSGNTATLTIGRVESGDEADYYCQVWDSSSDPVVFGGGTKLTVL
B6: the binding result in experiment [1] is “binds”.

B7: NOL162-1-F5 (eqIgG6 format) (antibody, V domains shown)
VH: EVQLVETGGGVVQPGRSLRLSCAASGFTFSSYGMHWVRQAPGKGLEWVAVISYDGSNKYYADSVKGRFTISRDNSKNTLYLQMNSLRAEDTAVYYCAKGFKIQLWFAAFDIWGQGTMVTVSS
VL: QSVLTQPPSVSVAPGQTARITCGGNNIGSKSVHWYQQKPGQAPVLVVYDDSDRPSGIPERFSGSNSGNTATLTISRVEAGDEADYYCQVWDSSSDPVVFGGGTKLTVL
notes: human VH of NOL162-1-F5 (selected from HAL9/10); human VL of NOL162-1-F5; Chimeric IgG: human VH and VL, all constant domains equine (IgG6); Selected by panning in MTP; also called parental antibody; parAB; source: Expi293F suspension cells, purified (HiTrap Fibro PrismA or Protein G HP)
B7: the binding result in experiment [6] was “no binding (tested: 100 nM)”. For the same molecule, the half-maximal inhibitory concentration (IC50) in experiment [7] was 15 nM; in experiment [2], 7 nM and 12 nM. The EC50 in experiment [5] amounted to 9 nM.

B8: NOL229-C3 (antibody, V domains shown)
VH: EVQLVETGGGVVQPGRSLRLSCAASGFTFRSYGMHWVRQAPGKGLEWVAVISNDGSNKYYADSVKGRFTISRDNSKNTLYLQMNSLRAEDTAVYYCAKGFKIQLWFAAFDIWGQGAMVTVSS
VL: QSVLTQPPSVSVAPGQTARITCGGNNIGSKSVHWYQQKPGQAPVLVVYDDSDRPSGIPERFSGSNTGNTATLTISRVEAGDEADYYCQVWDSSSDPVVFGGGTKLTVL
With B8, the binding result in experiment [1] is “binds”.

B9: NOL226-2-G9 (antibody, V domains shown)
VH: EVQLEETGGGVVQPGRSLRLSCAASGFTFGSYGMHWVRQAPGKGLEWVAVISYDGSNKYYADSVKGRFTISRDNSKNTLYLQMNSLRAEDTAVYYCAKGFKIQLWFAAFDIWGQGTMVTVSS
VL: QSVLTQPPSISVAPGQTARITCGGNNIGSKSVHWYHQKPGQAPVLVVYDDSDRPSGIPERFSGSNSGNTATLTISRVEAGDEADYYCQVWDSSSDPVVFGGGTKLTVL
On to B9, for which the binding result in experiment [1] is “binds”.

B10: NOL226-2-D10 (eqIgG6 format) (antibody, V domains shown)
VH: EVQLVETGGGVVQPGRSLRLSCAASGFTFSSYGMHWVRQAPGKGLEWVAVISYDGSNKYYADSVKGRFTISRDNSKNTLYLQMNSLRAEDTAVYYCVKGLKIQLWFAAFDIWGQGTMVTVSS
VL: QSVLTQPPSVSVAPGQTARITCGGNNIGSKSVHWYQQKPGQAPVLVVYDDSDRPSGIPERFSGSNSGNTATLTISRVEAGDEADYYCQVWDSSSDPVVFGGGTKLTVL
notes: as the VH of m4 (NOL162-1-F5) with A97V and F100L, both in the CDR3 of the VH; as the VL of m4 (NOL162-1-F5); also called final antibody; final candidate; source: Expi293F suspension cells, purified (HiTrap Fibro PrismA or Protein G HP)
In the case of B10, the binding result in experiment [6] is “no binding (tested: 100 nM)”. Also, the IC50 in experiment [7] came to 9 nM; in experiment [2] it was 4 nM. For the same molecule, the EC50 in experiment [5] turned out to be 8.8 nM.
